According to the Human Domainome abundance scans (Beltran et al. 2025):
± gives the uncertainty stated by the source.

B1: Dynamin-binding protein, residues 146 to 206; numbered along this chain, Q6XZF7 (parent)
chain: SMGQARALMGLSAQLDEELDFREGDVITIIGVPEPGWFEGELEGRRGIFPEGFVELLGPLR

Variants of: B1
Assay: abundance fitness (aPCA) (normalised: wild type 0, dead -1); higher = more abundant; growth selection in yeast, the domain comes from the species named
Conditions: Homo sapiens
In the case of SMNQARALMGLSAQLDEELDFREGDVITIIGVPEPGWFEGELEGRRGIFPEGFVELLGPLR [G3N], the abundance fitness is reported as 0.245 ± 0.043. For SMGQARALMGLSAQLDEELDFREVDVITIIGVPEPGWFEGELEGRRGIFPEGFVELLGPLR [G24V], the abundance fitness was -0.701 ± 0.08. For SMGQARALMGLSAQLDEELDFREQDVITIIGVPEPGWFEGELEGRRGIFPEGFVELLGPLR [G24Q], the abundance fitness was -0.733 ± 0.28. Work on SMGQARALMGLSAQLDEELDFREEDVITIIGVPEPGWFEGELEGRRGIFPEGFVELLGPLR [G24E] yielded an abundance fitness of -0.593 ± 0.2. In the case of SMGQARALMGLSAQLDEELDFREWDVITIIGVPEPGWFEGELEGRRGIFPEGFVELLGPLR [G24W], the abundance fitness is reported as -0.891 ± 0.21. With SMGQARALMGLSAQLDEELDFREPDVITIIGVPEPGWFEGELEGRRGIFPEGFVELLGPLR [G24P] the abundance fitness was -0.749 ± 0.13. Work on SMGQARALMGLSAQLDEELDFRETDVITIIGVPEPGWFEGELEGRRGIFPEGFVELLGPLR [G24T] yielded an abundance fitness of -0.818 ± 0.12. In the case of SMGQARALMGLSAQLDEKLDFREGDVITIIGVPEPGWFEGELEGRRGIFPEGFVELLGPLR [E18K], the abundance fitness is reported as 0.23 ± 0.38. With SMGQARALMGLSAQLDEELDFREGDVITIIGVPEPGWFEGELEGRRGIFSEGFVELLGPLR [P50S] the abundance fitness was -0.674 ± 0.068. Variant SMGQARALMGLSAQLDEELDFREGDVITIIGVPEPGWFEGELEGRRGIFEEGFVELLGPLR [P50E] has an abundance fitness of -0.509 ± 0.19. Work on SMGQARALMGLSAQLDEELDFREGDVITIIGVPEPGWFEGELEGRRGIFLEGFVELLGPLR [P50L] yielded an abundance fitness of -0.655 ± 0.089. For SMGQARALMGLSAQLDEELDFREGDVITIIGVPEPGWFEGELEGRRGIFCEGFVELLGPLR [P50C], the abundance fitness was -0.93 ± 0.15. For SMGQARALMGLSAQLDEELDFREGFVITIIGVPEPGWFEGELEGRRGIFPEGFVELLGPLR [D25F], the abundance fitness was -0.518 ± 0.075. Work on SMGQARALMGLSARLDEELDFREGDVITIIGVPEPGWFEGELEGRRGIFPEGFVELLGPLR [Q14R] yielded an abundance fitness of 0.142 ± 0.08. With SMGQARALMGLSAQLDEELDFREGDVITIIGVPEPGWFEGQLEGRRGIFPEGFVELLGPLR [E41Q] the abundance fitness was -0.267 ± 0.11. SMGQARALMGLSAQLDEELDFREGDVITIIGVPEPGWFEGALEGRRGIFPEGFVELLGPLR [E41A] gave an abundance fitness of -0.32 ± 0.059. SMGQARALMGLSAQLDEELDFREGDVITIIGVPEPGWFEGWLEGRRGIFPEGFVELLGPLR [E41W] showed an abundance fitness of -0.773 ± 0.13. In the case of SMGQARALMGLSAQLDEELDFREGDVITIIGKPEPGWFEGELEGRRGIFPEGFVELLGPLR [V32K], the abundance fitness is reported as -0.349 ± 0.19. With SMGQARALMGLSAQLDEELDFREGDVITIIGVPEPGWFEGELEGRREIFPEGFVELLGPLR [G47E] the abundance fitness was -0.962 ± 0.37. For SMGQARALMGLSAQLDEELDFREGDVITIIGVPEPGWFEGELEGRRIIFPEGFVELLGPLR [G47I], the abundance fitness was -1.06 ± 0.35. SMGQARALMGLSAQLDEELDFREGDVITIIPVPEPGWFEGELEGRRGIFPEGFVELLGPLR [G31P] gave an abundance fitness of -0.121 ± 0.15. Work on SMGQARALMGLSAQLDEELDFREGDVITIITVPEPGWFEGELEGRRGIFPEGFVELLGPLR [G31T] yielded an abundance fitness of -0.717 ± 0.32. SMGQARALMGLSAQLDEELDFLEGDVITIIGVPEPGWFEGELEGRRGIFPEGFVELLGPLR [R22L] gave an abundance fitness of -0.282 ± 0.14. With SMGQARALMGLSAQGDEELDFREGDVITIIGVPEPGWFEGELEGRRGIFPEGFVELLGPLR [L15G] the abundance fitness was 0.08 ± 0.082. In the case of SMGQARALMGLSAQSDEELDFREGDVITIIGVPEPGWFEGELEGRRGIFPEGFVELLGPLR [L15S], the abundance fitness is reported as 0.283 ± 0.059. Work on SMGQARALMGLSAQLDEELDFREGDVITIIGVPEPGWFEGEDEGRRGIFPEGFVELLGPLR [L42D] yielded an abundance fitness of -0.975 ± 0.15. SMGQARALMGLSAQLDEELDFREGDVITIIGVPEPGWFEGELEGRRGAFPEGFVELLGPLR [I48A] gave an abundance fitness of -0.777 ± 0.29. For SMGQARALMGLSAQLDEELDFREGDVITIIGVPEPGWFEGELEGRRGVFPEGFVELLGPLR [I48V], the abundance fitness was -0.007 ± 0.041. Variant SMGQARALMGLSAQLDEELDFREGDVITIIGVPEPGWFEGELEVRRGIFPEGFVELLGPLR [G44V] has an abundance fitness of -0.884 ± 0.2. SMGQARALMGLSAQLDEELDFREGDVITIIGVPEPKWFEGELEGRRGIFPEGFVELLGPLR [G36K] showed an abundance fitness of -0.347 ± 0.12. With SMGQARALMGLSAQLDEELDFREGDVITIIGVPEPRWFEGELEGRRGIFPEGFVELLGPLR [G36R] the abundance fitness was -0.709 ± 0.077. Variant SMGQARALMGLSAQLDEELDFREGDVITIIGVPEPDWFEGELEGRRGIFPEGFVELLGPLR [G36D] has an abundance fitness of -0.824 ± 0.23. For SMGQARALMGLSAQLDEELDFREGDVITIIGVPEPLWFEGELEGRRGIFPEGFVELLGPLR [G36L], the abundance fitness was -0.831 ± 0.1. Work on SMGQARALMGLSAQLDEELDFREGDVITIIGVPEPGWFEGELEGRRGIFPEGFVELKGPLR [L57K] yielded an abundance fitness of -0.585 ± 0.11. In the case of SMGQARALMGLSAQLDEELDFREGDVITIIGVPEPGWFEGELEGRRGIFPEGFVELRGPLR [L57R], the abundance fitness is reported as -0.43 ± 0.053. Work on SMGQARALMGLSAQLDEELDFREGDVITIIGVPEPGWFEGELEGRRGIFPEGFVEILGPLR [L56I] yielded an abundance fitness of -0.42 ± 0.13. With SMGQARALMGLSAQLDEELDFREGDVITIIGVPEPGWFEGELEGRRGIFPEGFVELLGPLL [R61L] the abundance fitness was 0.336 ± 0.35. Variant SMGQARALMGLSAQLDEELDFREGDVITIIGVPEPGWFEGELEGRRGIFPEGFVELLGPLV [R61V] has an abundance fitness of 0.019 ± 0.083. With SMGQARALMGLSAQLDEELDFREGDVITIIGVPEPGWFEGELEGRRGIFPEGFVELLGPLN [R61N] the abundance fitness was -0.054 ± 0.077. With SMGQARALMGLSAQLDEELDFREGDVITIIGVPEPGWFEGELEGRRGIFPEGFVELLGPLE [R61E] the abundance fitness was -0.018 ± 0.15. In the case of SMGQARALMGLSAQLDEELDFREGDVITIIGVPEPGWFEGELEGRRGIFPEGFVELLGPLI [R61I], the abundance fitness is reported as -0.135 ± 0.13. SMGQARALMGLSAQLDEELDFREGDVITIIGVPEPGWFEGELEGRRGIFPEGFGELLGPLR [V54G] showed an abundance fitness of -0.708 ± 0.07. SMGQARALMGLSAQLDEELDFREGDVITIIGVPEPGWFEGELEGRRGIFPEGFNELLGPLR [V54N] gave an abundance fitness of -0.674 ± 0.45.
